The source of these data is US20210198328A1, “MODULATED CAS-INHIBITORS” (Universität Heidelberg, priority 2017, published 2021).

Experiment [1] concerns the target dCas9-3xRFP (Streptococcus pyogenes) (UniProt Q99ZW2). Briefly: cell-based or functional assay.
In the next experiment the target is dCas9-p300 (UniProt Q99ZW2). The experiment is described as follows: cell-based or functional assay.

In experiment [1], “CASANOVA (Acr-LOV variant 4; delta N64/Q65/E66, LOV2 inserted, no GS-linkers)” came in with a telomere labeling in U2OS nuclei, dark: cells labeling negative of 60%; a telomere labeling in U2OS nuclei, dark: more than 15 dots in the nucleus below 5%; a telomere labeling in U2OS nuclei, light: more than 15 dots in the nucleus of 40%; a telomere labeling in U2OS nuclei, light: nuclei labeling positive of 80%. The same sequence showed an IL1RN transcript levels by quantitative RT-PCR, light against dark with dCas9-p300 below 10 fold.
